Experimental data as given in doi:10.1101/2021.07.20.453048.

Target: Taxol-stabilized microtubules polymerised from purified bovine brain tubulin (bovine) (UniProt Q6B856)
Assay: co-sedimentation

Kd: 160 nM
B1: His-MBP-ENKD1 (maltose-binding protein fusion of full-length human Enkurin domain containing 1) (natural protein)
chain: MCEGPSRISGPIPPDPTLCPDNYRRPTSAQGRLEGNALKLDLLTSDRALDTTAPRGPCIGPGAGEILERGQRGVGDVLLQLEGISLGPGASLKRKDPKDHEKENLRRIREIQKRFREQERSREQGQPRPLKALWRSPKYDKVESRVKAQLQEPGPASGTESAHFLRAHSRCGPGLPPPHVSSPQPTPPGPEAKEPGLGVDFIRHNARAAKRAPRRHSCSLQVLAQVLEQQRQAQEHYNATQKGHVPHYLLERRDLWRREAEARKQSQPDPAMPPGHTRMPENQRLETLTKLLQSQSQLLRELVLLPAGADSLRAQSHRAELDRKLVQVEEAIKIFSRPKVFVKMDD
